Test results published in the supplement of paper PMC12783771.
Changes are numbered by the printed parent chain. ± gives the standard deviation of the averaged measurements.

B1: library; a variant is named by its letters at X, in order (parent)
chain: MNIQIGELAKRTACPVVTIRFYEQEGLLPPPGRSRGNFRLYGEEHVERLQFIRHCRSLDMPLSXVRTLLSYRKRPDQDCGEVXMLLDEHIRQVESRIGALLELXHHXVELREACSGARPAQSCGILQXLSXCVCXTRGTTAHXSD
B2: library; a variant is named by its letters at X, in order (parent)
chain: B1 chain with I90X, H106X, X107L, X128G, X131D, X135D

Legend:
[1] = variants of: B1; assay: sfGFP reporter fluorescence (15 h) (µM FITC); higher = higher leak; conditions: library round: Round 3; ligand: none
Method: (§1)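 Cell-free biosensing: 1 µL Echo-assembled CFE reactions with linear PbrR variant templates (5 nM) and pPbrR-sfGFP reporter, with 1 µM Pb, 30 µM Zn or no ligand; endpoint sfGFP fluorescence after 15 h at 30 °C calibrated as µM FITC. Round 3 ML-predicted PbrR mutants; up to 3 biological replicates.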

[2] = variants of: B1; assay: sfGFP reporter fluorescence (15 h) (µM FITC); higher = stronger transcriptional activation; conditions: library round: Round 3
Method: as §1

[3] = variants of: B2; assay: sfGFP reporter fluorescence (15 h) (µM FITC); higher = higher leak; conditions: library round: Round 3b; ligand: none
Method: (§2)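 Cell-free biosensing: 1 µL Echo-assembled CFE reactions with linear PbrR variant templates (5 nM) and pPbrR-sfGFP reporter, with 1 µM Pb, 30 µM Zn or no ligand; endpoint sfGFP fluorescence after 15 h at 30 °C calibrated as µM FITC. Round 3b rational combinatorial PbrR mutants; 3 biological replicates.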

[4] = variants of: B2; assay: sfGFP reporter fluorescence (15 h) (µM FITC); higher = stronger transcriptional activation; conditions: library round: Round 3b
Method: as §2

Variant	sfGFP reporter fluorescence [1]	sfGFP reporter fluorescence ([2]; ligand: 1 µM Pb)	sfGFP reporter fluorescence ([2]; ligand: 30 µM Zn)	sfGFP reporter fluorescence [3]	sfGFP reporter fluorescence ([4]; ligand: 1 µM Pb)	sfGFP reporter fluorescence ([4]; ligand: 30 µM Zn)
DCKLGADY V16C H106A	0.0446 ± 0.0041	0.232 ± 0.014	0.0501 ± 0.00089			
DNKCGADY M60L	1.36 ± 0.092	1.92 ± 0.1	2.58 ± 0.11			
KNKLGDAP P61N L62I V108E	0.0795 ± 0.0049	0.275 ± 0.019	1.08 ± 0.098			
KITLGDDR H106A	0.046 ± 0.001	0.452 ± 0.026	0.0503 ± 0.0012			
LIKCGAAP H54C C55P H106L	0.0448 ± 0.0034	0.0419 ± 0.0013	0.0486 ± 0.0017			
KFVLGDDT H106A	0.0446 ± 0.0026	0.549 ± 0.023	0.095 ± 0.0055			
LCKCGAAP V16C H54C C55P H106L	0.0465 ± 0.0012	0.04402 ± 0.00034	0.0492 ± 0.00085			
TIVLGDDR H106A	0.0524 ± 0.0029	0.448 ± 0.023	0.0673 ± 0.0027			
KFVLGDDP P61T H106A	0.0442 ± 0.0014	0.0637 ± 0.0021	0.0488 ± 0.0034			
LIVCGAAP H54C C55P H106L	0.0444 ± 0.0015	0.0432 ± 0.00085	0.0495 ± 0.0022			
DNKCGADY G124A	0.267 ± 0.013	1.31 ± 0.084	2.05 ± 0.041			
DCVLGDDP V16C H54A	0.0426 ± 0.0029	0.127 ± 0.0026	0.0484 ± 0.0029			
LIVCGAAP V16C H54C C55P H106A	0.0452 ± 0.0017	0.0428 ± 0.0019	0.0456 ± 0.0037			
LIVCGAAP V16C H54C C55P H106L	0.0465 ± 0.0015	0.0427 ± 0.0018	0.0473 ± 0.0049			
KCVCMDDP V16C	0.185 ± 0.012	1.75 ± 0.16	0.434 ± 0.039			
DNKLGDDP	0.0412 ± 0.002	0.0516 ± 0.0024	0.416 ± 0.055			
KFVLGDDR H106N	0.0633 ± 0.0012	1.16 ± 0.054	0.2633 ± 0.0014			
DNKCMDAA D87E	0.936 ± 0.1	2.16 ± 0.15	2.28 ± 0.19			
DNKCMDAK P61N	2.25 ± 0.34	2.76 ± 0.33	3.11 ± 0.2			
DNKCMDAK P61D	0.53 ± 0.072	0.903 ± 0.12	2.24 ± 0.45			
KIVLGDDR H106E	0.0556 ± 0.0015	0.573 ± 0.037	0.0612 ± 0.0023			
KNKCTDDP M60L P61N	2.34 ± 0.2	3.48 ± 0.11	3.2 ± 0.18			

Variant	sfGFP reporter fluorescence [1]	sfGFP reporter fluorescence ([2]; ligand: 1 µM Pb)	sfGFP reporter fluorescence ([2]; ligand: 30 µM Zn)	sfGFP reporter fluorescence [3]	sfGFP reporter fluorescence ([4]; ligand: 1 µM Pb)	sfGFP reporter fluorescence ([4]; ligand: 30 µM Zn)
KIVCMDDP	0.424 ± 0.064	1.96 ± 0.25	1.78 ± 0.059			
NNKCMDDP M60L P61N	2.66 ± 0.24	3.55 ± 0.13	3.4 ± 0.14			
LILCGAAP V16C H54C C55P H106A	0.0465 ± 0.0014	0.0436 ± 0.0014	0.0502 ± 0.002			
DNKCGAAP H54C C55A	0.912 ± 0.075	1.67 ± 0.091	1.92 ± 0.15			
KFVLGDDA H106A	0.0507 ± 0.0013	0.541 ± 0.028	0.104 ± 0.0043			
KNKCMDDP M60L P61D	3.01 ± 0.32	3.17 ± 0.26	3.28 ± 0.24			
DNKCGAAY	1.05 ± 0.072	2.12 ± 0.14	2.26 ± 0.041			
KNKCIDDP M60L P61N	1.99 ± 0.26	3.23 ± 0.31	2.88 ± 0.25			
KNKCSDDP M60L P61N	2.09 ± 0.17	3.3 ± 0.17	3.18 ± 0.21			
DNKCIDAK M84A G124A	0.548 ± 0.043	2.01 ± 0.13	2.75 ± 0.23			
DNKCGSAY	0.873 ± 0.033	2.1 ± 0.24	2.35 ± 0.2			
LNKCGAAP H54C C55P H106L	0.0467 ± 0.0041	0.044 ± 0.0032	0.0477 ± 0.0034			
KNICMDDP M60L	2.28 ± 0.1	3.14 ± 0.26	3.216 ± 0.027			
KIVLGDDR L62I	0.0483 ± 0.0021	0.453 ± 0.018	0.09962 ± 0.00071			
KFVLGDDP I90A H106A	0.0469 ± 0.002	0.441 ± 0.013	0.0549 ± 0.0013			
LILCGAAC V16C H54C C55P H106A	0.0452 ± 0.0039	0.0421 ± 0.0021	0.0492 ± 0.0021			
DNKCGAAP H54C C55P H106L	0.04838 ± 0.00034	0.0446 ± 0.0014	0.0485 ± 0.0037			
LILCGAAC V16C H54C C55P E81A H106A	0.0437 ± 0.0031	0.0414 ± 0.0022	0.0463 ± 0.0019			
LCKCGAAP H54C C55P H106L	0.0458 ± 0.0017	0.0424 ± 0.0028	0.0474 ± 0.0026			
DNKLGAPY V133A	0.0571 ± 0.00067	0.174 ± 0.0037	0.728 ± 0.029			
DCKVGDDP V82I L85M	0.0458 ± 0.0022	0.329 ± 0.034	0.128 ± 0.0044			
DNKCMDAK G124A	0.531 ± 0.049	2.11 ± 0.15	2.65 ± 0.21			

Variant	sfGFP reporter fluorescence [1]	sfGFP reporter fluorescence ([2]; ligand: 1 µM Pb)	sfGFP reporter fluorescence ([2]; ligand: 30 µM Zn)	sfGFP reporter fluorescence [3]	sfGFP reporter fluorescence ([4]; ligand: 1 µM Pb)	sfGFP reporter fluorescence ([4]; ligand: 30 µM Zn)
ENKCMDAK	0.33 ± 0.045	1.43 ± 0.15	2.44 ± 0.15			
KNKCGADP M60L P61N	2.59 ± 0.17	2.95 ± 0.29	2.51 ± 0.32			
LIKLGDDP V16C M60V E81A R111A	0.0752 ± 0.0081	0.0783 ± 0.012	0.0505 ± 0.0042			
DFITER				0.0424 ± 0.0031	0.0522 ± 0.0026	0.0451 ± 0.0034
DFITET				0.0393 ± 0.0042	0.0493 ± 0.0022	0.0433 ± 0.0032
KNATER				0.0529 ± 0.0011	0.343 ± 0.014	0.336 ± 0.035
KNATEP				0.0501 ± 0.0039	0.279 ± 0.052	0.261 ± 0.015
KNATET				0.055 ± 0.0007	0.324 ± 0.017	0.34 ± 0.031
KFAVHP				0.0477 ± 0.002	0.656 ± 0.07	0.198 ± 0.014
KFAVHR				0.0469 ± 0.0029	0.631 ± 0.038	0.171 ± 0.017
KFAVHT				0.0459 ± 0.0029	0.632 ± 0.071	0.179 ± 0.029
KNIVAT				0.092 ± 0.0023	0.52 ± 0.048	1.42 ± 0.2
KIATHP				0.07594 ± 0.00067	1.34 ± 0.049	0.0972 ± 0.014
KIATHR				0.0655 ± 0.0015	1.19 ± 0.2	0.0963 ± 0.013
KIATHT				0.0743 ± 0.0012	1.3 ± 0.031	0.112 ± 0.0078
DFAVHT				0.0401 ± 0.0051	0.0539 ± 0.001	0.0473 ± 0.0027
DFAVHR				0.0438 ± 0.0023	0.059 ± 0.0031	0.0519 ± 0.0031
KFITHR				0.0496 ± 0.0019	0.554 ± 0.021	0.25 ± 0.036
KFITHT				0.0512 ± 0.0076	0.492 ± 0.046	0.21 ± 0.024
KIAVAT				0.0607 ± 0.0022	1.25 ± 0.024	0.0576 ± 0.0032
KIAVAP				0.0556 ± 0.001	0.772 ± 0.15	0.0487 ± 0.0065
KIAVAR				0.0586 ± 0.0045	1.08 ± 0.06	0.0523 ± 0.0046

Variant	sfGFP reporter fluorescence [1]	sfGFP reporter fluorescence ([2]; ligand: 1 µM Pb)	sfGFP reporter fluorescence ([2]; ligand: 30 µM Zn)	sfGFP reporter fluorescence [3]	sfGFP reporter fluorescence ([4]; ligand: 1 µM Pb)	sfGFP reporter fluorescence ([4]; ligand: 30 µM Zn)
KIAKHR				0.072 ± 0.002	1.07 ± 0.074	0.135 ± 0.017
KIAKHT				0.0693 ± 0.0034	0.93 ± 0.043	0.152 ± 0.011
DIITER				0.0474 ± 0.0038	0.0576 ± 0.0022	0.0446 ± 0.0022
DIITET				0.0436 ± 0.0034	0.0535 ± 0.002	0.047 ± 0.0035
DFIVET				0.0435 ± 0.0054	0.0785 ± 0.0019	0.0449 ± 0.0017
DFIVER				0.0476 ± 0.0017	0.0836 ± 0.0022	0.0461 ± 0.001
DIAKAR				0.0442 ± 0.0031	0.0673 ± 0.0063	0.045 ± 0.0015
DIAKAT				0.0356 ± 0.0029	0.0683 ± 0.0046	0.0346
KIAKAR				0.0603 ± 0.0029	0.794 ± 0.049	0.0642 ± 0.0027
KIAKAT				0.0563 ± 0.006	0.675 ± 0.061	0.0628 ± 0.0018
KIAKAP				0.0576 ± 0.0074	0.674 ± 0.062	0.0578 ± 0.0037
KFIVHT				0.0536 ± 0.0065	0.7 ± 0.038	0.365 ± 0.038
KIAVET				0.0672 ± 0.0059	1.21 ± 0.013	0.0607 ± 0.0027
KIAVEP				0.0654 ± 0.0022	0.997 ± 0.055	0.0578 ± 0.0022
KIAVER				0.0626 ± 0.0036	0.946 ± 0.087	0.0548 ± 0.002
KFITAP				0.0485 ± 0.0052	0.302 ± 0.022	0.0642 ± 0.0032
KFITAR				0.0479 ± 0.003	0.394 ± 0.028	0.0776 ± 0.0024
KFITAT				0.0473 ± 0.0032	0.335 ± 0.012	0.0678 ± 0.0076
DIAVHR				0.0454 ± 0.0066	0.104 ± 0.0012	0.0493 ± 0.0043
DIAVHT				0.0457 ± 0.0036	0.102 ± 0.0083	0.0483 ± 0.0036
KIIVAT				0.0506 ± 0.0022	0.424 ± 0.013	0.0534 ± 0.0041
KNATAP				0.052 ± 0.0055	0.226 ± 0.015	0.311 ± 0.038
